We go through one molecule from patent US20110064726A1 (published 2011).

Test [1] addresses T1, human IgE (full length human immunoglobulin E) (human, UniProt P01854 1-546). The test is described as follows: ELISA, immunoglobulin coated at 4 µg/mL, anti-human IgG2 detection. The procedure: (§1) Wells were washed 3× with 150 μL wash buffer (0.05% Tween-20 (Sigma, Cat. No. P7949)/PBS) then blocked with 150 μL/well blocking buffer (2.5% BSA (Sigma, Cat. No. A7030)/PBS) for 2 hours at room temperature. Wells were washed 3× with 150 μL wash buffer/well. […] Antibodies were diluted in diluent buffer (PBS/1% BSA/0.05% Tween-20) and this was added to blank control wells (duplicate wells for each secondary antibody used). Antibodies were incubated for 2 hours at room temperature. Wells were washed 3× with 150 μL wash buffer/well. Binding of control antibodies to immunoglobulin was detected with anti-mouse IgG-HRP conjugate (Sigma, Cat. No. A4416) diluted 1:8000 in diluent buffer. 50 μL/well was added to control antibody and blank wells. Wells were incubated for 1 hour at room temperature, then washed 3× with 150 μL wash buffer/well. 50 μl OPD (Dako, Cat. No. […] Wells were incubated for 1 hour at room temperature then washed 3× with 150 μL wash buffer/well. Streptavidin-HRP (Amersham Bioscience, Cat. No. RPN 1231) diluted 1:2000 in diluent buffer was added to all wells and incubated for 45 minutes at room temperature. Wells were washed (3×150 μL wash buffer).
In general terms: In an ELISA, binding on a coated surface is turned into a signal by an enzyme label.

A further test has as its target T2, human IgA (human).
T2 construct: bought preparation coated on the ELISA plate
Described as above. On the procedure: as §1

The target of the next test is T3, human IgG1 (human, UniProt P01857-1 1-330 = IgG part).
T3 construct: bought preparation coated on the ELISA plate; not shown: bought immunoglobulin, light chain not described
T3 sequence (P01857 other isoform, or with tags, fused parts or gaps): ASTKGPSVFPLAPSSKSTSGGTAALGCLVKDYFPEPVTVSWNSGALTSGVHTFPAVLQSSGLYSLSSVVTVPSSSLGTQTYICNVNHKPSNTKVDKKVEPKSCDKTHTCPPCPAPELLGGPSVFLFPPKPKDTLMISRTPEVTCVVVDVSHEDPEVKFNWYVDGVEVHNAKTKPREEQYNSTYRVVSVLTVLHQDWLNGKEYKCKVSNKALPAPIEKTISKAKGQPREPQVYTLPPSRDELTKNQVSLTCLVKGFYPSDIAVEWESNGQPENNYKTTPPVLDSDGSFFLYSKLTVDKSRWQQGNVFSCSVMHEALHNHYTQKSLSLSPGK
Described as above. On the procedure: as §1

For the next test, the target named is T4, human IgG3 (human, UniProt P01860-1 1-377).
T4 construct: bought preparation coated on the ELISA plate; not shown: bought immunoglobulin, light chain not described
T4 sequence (P01860 other isoform, or with tags, fused parts or gaps): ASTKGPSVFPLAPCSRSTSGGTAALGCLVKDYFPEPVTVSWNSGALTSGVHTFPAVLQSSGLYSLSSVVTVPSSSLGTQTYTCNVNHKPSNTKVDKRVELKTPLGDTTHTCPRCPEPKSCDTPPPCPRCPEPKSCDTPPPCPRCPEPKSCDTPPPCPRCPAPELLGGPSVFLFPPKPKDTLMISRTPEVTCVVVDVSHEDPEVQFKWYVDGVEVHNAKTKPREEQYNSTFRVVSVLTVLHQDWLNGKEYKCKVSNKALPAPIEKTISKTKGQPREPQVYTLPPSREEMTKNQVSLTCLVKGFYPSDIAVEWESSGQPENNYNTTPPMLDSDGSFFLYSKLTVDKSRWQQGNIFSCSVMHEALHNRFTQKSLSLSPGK
The test is described as above. On the procedure:
as §1

Test [2] concerns the target T1, human IgE (full length human …). As to the kind of experiment: serum free IgE depletion ELISA; DIN 0155, initial free IgE 93 ng/mL.
For test [3] the target is unchanged. The test is described as follows: serum free IgE depletion ELISA; DIN 0649, initial free IgE 93 ng/mL.
For test [4] the target is unchanged. The test is described as follows: serum free IgE depletion ELISA; DIN 0284, initial free IgE 339 ng/mL.
The target is the same in test [5]. As to the kind of experiment: serum free IgE depletion ELISA; DIN 0347, initial free IgE 221 ng/mL.
For test [6] the target is unchanged. The test is described as follows: serum free IgE depletion ELISA; DIN 0591, initial free IgE 152 ng/mL.
For test [7] the target is unchanged. The test is described as follows: serum free IgE depletion ELISA; DIN 0382, initial free IgE 2827 ng/mL.
Test [8] has the same target. As to the kind of experiment: serum free IgE depletion ELISA; DIN 0748, initial free IgE 4609 ng/mL.
The target is the same in test [9]. As to the kind of experiment: serum free IgE depletion ELISA; DIN 0011 experiment 1, initial free IgE 555 ng/mL.
Test [10] has the same target. As to the kind of experiment: serum free IgE depletion ELISA; DIN 0011 experiment 2, initial free IgE 326 ng/mL.
For test [11] the target is unchanged. The test is described as follows: serum free IgE depletion ELISA; DIN 0321 experiment 1, initial free IgE 262 ng/mL.
For test [12] the target is unchanged. As to the kind of experiment: serum free IgE depletion ELISA; DIN 0321 experiment 2, initial free IgE 265 ng/mL.
Test [13] has the same target. The test is described as follows: serum free IgE depletion ELISA; DIN 0451 experiment 1, initial free IgE 557 ng/mL.
Test [14] shares this target. The test is described as follows: serum free IgE depletion ELISA; DIN 0451 experiment 2, initial free IgE 534 ng/mL.
For test [15] the target is unchanged. The test is described as follows: serum free IgE depletion ELISA; DIN 0623 experiment 1, initial free IgE 145 ng/mL.
The target is the same in test [16]. As to the kind of experiment: serum free IgE depletion ELISA; DIN 0623 experiment 2, initial free IgE 133 ng/mL.
Test [17] shares this target. As to the kind of experiment: serum free IgE depletion ELISA; DIN 0632 experiment 1, initial free IgE 532 ng/mL.
Test [18] shares this target. The test is described as follows: serum free IgE depletion ELISA; DIN 0632 experiment 2, initial free IgE 289 ng/mL.

T1 sequence (P01854 whole entry): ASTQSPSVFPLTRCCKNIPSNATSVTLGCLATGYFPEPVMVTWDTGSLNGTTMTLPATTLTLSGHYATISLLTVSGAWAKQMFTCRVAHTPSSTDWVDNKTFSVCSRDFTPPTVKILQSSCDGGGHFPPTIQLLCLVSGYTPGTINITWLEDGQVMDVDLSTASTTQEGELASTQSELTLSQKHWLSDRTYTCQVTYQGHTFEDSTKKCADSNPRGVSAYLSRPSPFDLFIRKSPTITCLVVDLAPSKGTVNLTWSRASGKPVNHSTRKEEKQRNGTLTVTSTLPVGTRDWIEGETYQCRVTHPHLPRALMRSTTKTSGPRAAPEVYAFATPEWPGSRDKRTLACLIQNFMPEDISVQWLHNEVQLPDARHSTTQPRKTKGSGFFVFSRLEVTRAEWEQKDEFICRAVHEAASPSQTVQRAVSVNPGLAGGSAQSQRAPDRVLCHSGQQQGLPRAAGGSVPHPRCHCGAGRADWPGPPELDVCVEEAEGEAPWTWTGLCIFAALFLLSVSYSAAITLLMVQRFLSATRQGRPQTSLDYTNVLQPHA

B1: recombinant 5.948.1 (antibody, human IgG2, kappa, V domains shown)
VH: QVQLVQSGAEVKKPGASVKVSCKASGYTFTSYDINWVRQATGQGLEWMGWMDPNSGNTGYAQKFQGRVTMTRNTSISTAYMELSSLRSEDTAVYYCARGHYDSDGYYSFSGMDVWGQGTTVTVSS
VL: not shown
notes: human IgG2 kappa; two batches (762.8 µg/mL and 5.2 mg/mL) were tested; also called 5.948.1 (recombinant); 5.948.1 - Batch 1
B1: the A290 nm in test [1] worked out at 2.57 absorbance; with human IgA, 0.04 absorbance; with human IgG1 it was 0.07 absorbance; with human IgG3 it was 0.04 absorbance. Also, the IC25ng/mL in [2] was 1.81 µg/mL; in test [3], 1.95 µg/mL; in test [4], 2.45 µg/mL; in test [5] it was 4.92 µg/mL; in [6], 2.35 µg/mL; in test [7] it was 25 µg/mL. Besides, the IC25ng/mL in [8] turned out to be 25.1 µg/mL; in test [9], 3.3 µg/mL; in [10], 6.34 µg/mL; in [11] it was 1.34 µg/mL; in [12], 7.9 µg/mL; in test [13], 11.6 µg/mL. For the same molecule, the IC25ng/mL in [14] came to 39.7 µg/mL; in test [15], 0.5 µg/mL; in test [16], 4.13 µg/mL; in [17] it was 8.91 µg/mL; in test [18] it was 6.31 µg/mL.
